A short description of this series: soluble on expression in E. coli; label from the status in PepcDB or PDB records.
Consider “MGSDKIHHHHHHMNTPREVTLHFLRTAGHPLTRWALQRQPPSPKQLEEEFLKIPSNFVSPEDLDIPGHASKDRYKTILPNPQSRVCLGRAQSQEDGDYINANYIRGYDGKEKVYIATQGPMPNTVSDFWEMVWQEEVSLIVMLTQLREGKEKCVHYWPTEEETYGPFQIRIQDMKECPEYTVRQLTIQYQEERRSVKHILFSAWPDHQTPESAGPLLRLVAEVEESPETAAHPGPIVVHCSAGIGRTGCFIATRIGCQQLKARGEVDILGIVCQLRLDRGGMIQTAEQYQFLHHTLALYAGQLPEEPSP”, for which the “soluble on expression in E. coli” value is reported as “soluble”.

As to “MGSDKIHHHHHHMNTSGWGKYPEIEAQVLTPSSEKALQDLIGTGSYDGVTPRGLGRSYGDSSLGKLMVKTLRLNHMLSFELQSGLLHCQSGVSLAEILEVFVPRGWFLPVTPGTKLVTVGGAIASDIHGKNHHIDGCFCDHVDFLDLLTGSGEIIRCSPHEQAQLFHATCGGMGLTGIILSAAIRLTPIKSAYIDQVTFKSANLGESFELFEKQAEQPYSVAWIDCISSGDKLGRSLLMTGKHAQHGALAAHHNPGLSVPLDLPSFILNPYSIKAFNTLYYHKARQRETHATVHYDPFFYPLDGIGHWNRMYGKNGFTQYQFVIPKEAGLQAMDLILRTIVNSKKGSFLAVLKAFGKENRNLLSFPMEGYTLALDFKIEPDLFPLLDRLDAMVLDHGGRLYLTKDARMNAETFRKCYPKWEQFQNIRQQYGARHTFLSMQSQRLGLD”, the “soluble on expression in E. coli” value is recorded as “not soluble”. As for “MGSDKIHHHHHHMNVFATLKTVFFGSKFLSSPVPIDGTPRRDLVSALNGLMPLCRTIPGVRLALDIREGQVVLALNWTPRTDGNAPTGSYHYIVSDEDGVREMADSQVLLTENGKDNLPGSMDDSRTHPTVSTEKTEKDSAHLKKDVQKKAGPTSPEDTGKKAKSHTLMQEVTAFLTSRYRFRFNVLTEETEVASVENNIPDTHLRYAKVDERWMNSLSLEAIETGIDCWDRDIQRFVRSRRISEYHPFTAYFEQLPEWDGTDRVSALARRVSDDPVWVNGFHRWMLGLSAQWMQLNPDNNRANSVAPLLVSSRQGLGKSTFCRLLMPDRLKSYYTESYDLSSPTSAEAKLAAYGLINLDEFDKLGASKMPLLKNLMQASALNIRKAYKHSASSLPRIASFIGTSNREDLLVDRTGSRRFLCVSLKHAIDCTTSVEHKQLYAQLKTELLSGERSWFNKEEEQTIQQHNALFYKHVPEEEVFRLCFRFATEEDNPQEVLSLSATQLFERMKAAHPSIMRGMTAYSLSRILPQLGERVHTTKGNVYRVVEC”, the entry is “not soluble”; as for “MGSDKIHHHHHHMNWDDIKIFLEVARAERLSTAAKRLTMDASTVSRRLHKLEESIATKLFDRTQDGHVLTPDGEMLLTSACKMEQDAQHALSSIHNNNEENCGLVRIGVTEALGNFFVSPNLLTLQQQHPSIDVHLLLFSRYVKISRNEADIAIAVERPKSTSMIVSKLCDYKLQLYVHQDYLDHNLKQYPQGITLDNLAEHKWVTYVDNLIFTDQLSYIKELDRYLSGELKANFSSTSIISQYFAIKSGLGIGILPCFLADQDKSLIKLHSQDITISRSFWLVTHPESKRLSHVNTVWQYLKQLVLEHAELLNPKE”, “not soluble”; as for “MGSDKIHHHHHHMNYFSYLSLEERQNFFYKEPLSFSKNIEKEQLAYALGATLYTPGTKETIAEDIIRKKHVEATSIIFCLEDSISDKEVKFAEQNIVFQIQQISNLVSDNILNQADIPLLFIRVRQPSQMRTIVTELGSAVHCLCGFVFPKFTPVNGKSYIDQLAYINKLYSLSLYGMPILESPEIMYRETRVKSLLQIKDLLDSYRDYILNVRIGATDFSSIFGIRRNKHTPIYHITVVRDCISDIINIFSRATNGYVISGCVWEYFSNDYEEGLIQEVSLDHANGLIGKTVIHPSHIKVVQAMHIVTMEDYLDARSILQHANTYNGVLKSSFANKMNEVKPHYNWARKTILKSNIYGVLHENKQFTDLLITNAKQHV”, “not soluble”. As for “MGSDKIHHHHHHMNYKNRKRAYYQENSCMDNFICKNCGCLVVPEGAGTQHRNHCPHCLHSLHVDIIPGDRAADCDANMEPIGVWVRKNGEWAIIHRCTRCGHLSSNRIAADDNSVKLMSIALKPLAQPPFPLERIIEKLEKEETE”, the entry is “not soluble”; as for “MGSDKIHHHHHHMPAFNQHDLSHFVGKHLIYTYDNGWNYELYVKNANTIDYRIHSGIVGNRWVKDQQVYIVQVAREVYKISWTEPTGTDVSLIANIADKVFHGTIFFPRWVINNPEKTVCFQNEHIAEMEAYRDAGPAYPTEVIDEFATITFIRDCGENNNDVINCPASELPADFPACLKK”, “not soluble”.

The values above are taken from the DeepSol protein solubility set.
